Measured values: the DeepSol protein solubility set

Test: soluble on expression in E. coli; label from the status in PepcDB or PDB records

Sequence	soluble on expression in E. coli
MGSDKIHHHHHHMKHGGYPWKNGKPALDVKDFSVNLNPMGVPKFIEELINEAVKLKVYAYYPPQNLREIKGIIAEIYGVNEDLVGVFNGASEVISILDENFTVPQPNYSEYKFHSYYFAEEHEDEFVFELNPGRILTSNPNNPTGSLIKLDEIEEFLINEKNELILDESFIDISLAESATKLVNEFNNLTIINSFTKSLAIPGLRFGFSIGHKSKELEKRVPIWRINSITYYVISNLNPKEVRSFFVNSKIKVKEIYDKVDGVKKLFKMYKSYAPFFLVEFKIPTSLINDELIRRCKCYIRDASNFLGLRNTHARIALKNEVIELINNINEIISEKES	not soluble
MGSDKIHHHHHHMKIAVINFSGNVGKTTVSRHLLLPRIQGAELISVESVNADEGKTTALRGGQFAELQEYLQTVNSAIVDIGASNVDQLLFLMQSYRGSHEDFDCFVVPTVPPLKQQQDTIATLIDLSRLGVPPSRLKILFNMTEPGRPVEQTFYLLLAYLAQHPIAVPNTACSLGANEIYGRIRGIKSDLGTLARDTTDYKSLIAKAKDATEKLALAQKLATRRLASGVVLELDACFGALDLHALSAGASPTETSAEA	not soluble
MGSDKIHHHHHHMKIGITCYPSMGGSGIIATELGIKMAERGHEVHFITSNIPFRIRKPLPNMTFHQVEVNQYAVFQYPPYDITLSTKISDVIQEYDLDILHMHYAVPHAVCGILAKQMSGKNVKIMTTLHGTDITVLGYDHTLQNAIKFGIEQSDIVTSVSHSLAQQTYEIINTKKEIIPIYNFVRENEFPTRHNEELKDCYGISPEEKVLIHVSNFRKVKRIDTVIETFAKVHESIPSKLILLGDGPELIDMRHKARELDVETHVLFLGKQNDVSAFYQLSDLVLLLSEKESFGLTLLEAMKTGVLPIGSHAGGIKEVIRHEETGFIVDIGDSTQAAKYAIKLLSNPELYQKMQSQMLKDIEARFSSDLITDQYENYYRKMLEQGENNNES	not soluble
MGSDKIHHHHHHMKIIQLEYFLAIVKYNSFTKAAQFLHISQPSLTATIKKMEADLGYDLFTRSTKDIKITEKGIQFYRYASELVQQYRSTMEKMYDLSVTSEPRIKIGTLESTNQWIANLIRKHHSDYPEQQYRLYEIHDKHQSIEQSLNFNIHLAITNEKITHEDIRSIPLYEESYILLAPKETFKNQNWVDVENLPLILPNKNSQVRKHLDDYFNRRNIRPNVVVETDRFESAVGFVHLGLGYAIIPRFYYQSFHTSNLEYKKIRPNLGRKIYINYHKKRKHSEQVHTFVQQCQDYLYGLLEAL	not soluble
MGSDKIHHHHHHMKILITGANGQLGREIQKQLKGKNVEVIPTDVQDLDITNVLAVNKFFNEKKPNVVINCAAHTAVDKCEEQYDLAYKINAIGPKNLAAAAYSVGAEIVQISTDYVFDGEAKEPITEFDEVNPQSAYGKTKLEGENFVKALNPKYYIVRTAWLYGDGNNFVKTMINLGKTHDELKVVHDQVGTPTSTVDLARVVLKVIDEKNYGTFHCTCKGICSWYDFAVEIFRLTGIDVKVTPCTTEEFPRPAKRPKYSVLRNYMLELTTGDITREWKESLKEYIDLLQM	soluble
MGSDKIHHHHHHMKIQQPSVLIPDPCNNPLAYYAIRCLKQANSEFNINVIVSSGQTLDDNEWLYFYKYSAYIDNLVVSANSMNSLEYLDEVIRIIENQGINLIFPASEEGFKFVSKYRYKLSKFCRIVALPSEENLDAAFDKWKLHLLLQKHNIPTPETVLLKEIENISQFNYPVILKPVDGSGGKNIQKFDSLEEENFQAICNYPNDVYIVQKYVPGHDIGCSVLCQDGQVLAYTIQQQLGLTEGFTPKIDKLKFVHDSAVIDIVTKTMNVLKWSGIANLDLRYNSQTGQINVIEINPRFWQSLMGSLSVGVNFPYILYLLSNNISFERISYKEQYYAKFHRFIQDAFNGSLEYSLSDTNVKYFLSDPSGILHFLFYKLMKQKLFQNMKSIFSLQSQKIQNVK	not soluble
MGSDKIHHHHHHMKITFPNLGNTLYAAKALFDNLEIEYVLPPNSSKKCLEIGSLYSPEDICLPFKIMIGAYIDSIERGADTILITGSCGPCRFGEYCELQINLLKKLGHDVDFIVLDRPSSIGKTEFLNRLSKISGSSSISSYKKLKAVYSAYKIINLIDYIEKTARYKAGFELKKGECKKILQTCKKSALTCNNAESMIDLLTKYKHMINHVPIDSTKTPLKVSIIGEIYTILEPFSNLYIENKLMDLGISTQKNITPSWWFKDAMLSNLNLNSINLRMNSKKYLPYYIGGHGRECVGEAVMASNSGFDGAIQLFPMGCMPEIVSKSILPTISRDKDFPILSLIIDEMTGDAGYMTRIEAFIDLLERRKNRCII	not soluble
MGSDKIHHHHHHMKIVVTKFGGSSLADSNQFKKVKGIIDSDANRKYIIPSAPGKRTNKDYKITDLLYLCNAHVKNGIPFDDVFKLISQRYTEIVSELNIDMDIAYYLEKVKKNIENGASSDYAASRGEYLNGVILAKYLNAEFIDAAEVIFFDKSGCFDEKKSYEKIKEKVLSCNKAVIPGFYGSSFNGDVKTFSRGGSDVTGSIISAGVNADLYENWTDVSGFLMADPRIVENPKTISKISYKELRELSYMGATVLHEEAIFPVKDSGIPINIKNTNKPSDPGTLILSDTHKEINLGTITGIAGKKNFTVIAIEKALLNSEVGFCRKILSILEMYGVSFEHMPSGVDSVSLVIEDCKLDGKCDKIIEEIKKQCNPDSIEIHPNMALVATVGTGMAKTKGIANKIFTALSKENVNIRMIDQGSSEINVIVGVETVDFEKAVKSIYNAFN	not soluble
MGSDKIHHHHHHMKIYIMKQQMRQAKRVNYLDEHLNCLFYNGNPEIGFRHLTLQKGKTWCELSAKNNYFFFLLEGALIVDFNECVGYEVGKGEMIYLPRSADFKIFAKESADLIILSYGIPVQLCDKLSLSQLGAFITDFKYEFKSLDIRVPLDTFLKLLVKYLDSGMSCQHMHELKQKELFLILRAYYTKEEKVNFFYHSIAASLTFKDKVMGVYLEARTVQELADKCGYGLKTFQRLFYSCFSEVPSKWLMKQKAQHVKARLLDRDIPIKVILDEFGFSTYANFCNYCKRYVGDTPRNIRESVTLGFRK	not soluble
MGSDKIHHHHHHMKIYVDGREVIINDNERNLLEALKNVGIEIPNLCYLSEASIYGACRMCLVEINGQITTSCTLKPYEGMKVKTNTPEIYEMRRNILELILATHNRDCTTCDRNGSCKLQKYAEDFGIRKIRFEALKKEHVRDESAPVVRDTSKCILCGDCVRVCEEIQGVGVIEFAKRGFESVVTTAFDTPLIETECVLCGQCVAYCPTGALSIRNDIDKLIEALESDKIVIGMIAPAVRAAIQEEFGIDEDVAMAEKLVSFLKTIGFDKVFDVSFGADLVAYEEAHEFYERLKKGERLPQFTSCCPAWVKHAEHTYPQYLQNLSSVKSPQQALGTVIKKIYARKLGVPEEKIFLVSFMPCTAKKFEAEREEHEGIVDIVLTTRELAQLIKMSRIDINRVEPQPFDRPYGVSSQAGLGFGKAGGVFSCVLSVLNEEIGIEKVDVKSPEDGIRVAEVTLKDGTSFKGAVIYGLGKVKKFLEERKDVEIIEVMACNYGCVGGGGQPYPNDSRIREHRAKVLRDTMGIKSLLTPVENLFLMKLYEEDLKDEHTRHEILHTTYRPRRRYPEKDVEILPVPNGEKRTVKVCLGTSCYTKGSYEILKKLVDYVKENDMEGKIEVLGTFCVENCGASPNVIVDDKIIGGATFEKVLEELSKNG	not soluble
MGSDKIHHHHHHMKKATDKNPTTTSKPNTITPLFTTNYNVYINHTDAGGIVYHANHLVFFENCRRDWFTQLGLNGYFLESNDGQIQHFVVTQADLQYKHAILLDEVINVRIDNVEIKPASIVFYQSIYRQQSQDNTANNAKAVLLSSTKIVVACVQNQITPDSIDNNASNNTAPMRPVRVPQKLRDAIERAIAEHIVEIL	not soluble
MGSDKIHHHHHHMKKGLVMEGGAMRGLYTAGVTDVLMKYGIKFDGAVGVSAGVTFGCNYKSLQPGRVLRYNLRYGSRPQFKSWRSWIKTGDLYGADFCYYTLPEVLDPFDTAAFARNPMDFWCVATDVETAQPAYHKLTTGKGRDVAWIRASASIPVFARPVKIGGHAYWDGGVSDSIPVRFLLDKDYDKAVVILTQPAGYQKEPSRLQPVIDRVLKKYPAVVARLRQRHLEYNACLAYIAKEEAAGHLFVFRPSQGIDVSAMEKDPNRLKAVYQVGVRGCQAAIGGLEGIFTRLSTKNGD	not soluble
MGSDKIHHHHHHMKKIFKSIANSANCLADVLFPPHCLVCDSGLVLGETDVCSTCLSTLPTVNDDYSPDSLYLRLSIELRPSFVWAYLLFDSKNKTQKILHAIKYGDAPDIAVRLAMIWTDRIRESLVEADVDLIMPIPLHKSKLRKRGYNQATKIAEGIQKIVPIPIEESVLIRKRNLFIQAKSKRAKRFENVKQVYAIQHIEKVAGKHILLVDDVLTTGATLEACGLLLKNAGAAKVSVALLAMVAD	not soluble
MGSDKIHHHHHHMKKLALISLDGNGIYNLKYMPFLSELAEKGDIFTVDSIFPTLTDLVHTTVMTGVEPRHHWVVENGYYDRLSGVRVKFYEYDVAFNPHKVIKAPLIQDILRQRGVRIASVSGYTMPPFSNVDVRIFPPFFSSDELYRRHGRDWKKDVWVLNSALYLYEECKPDLLLVHFASIDGMQHDHGPESREALKAVETVDSAIRALWERLKDEYAFIIFADHGQEEVHTWVNLREYLRNKGIETLRVSSGGGVHVYLKDPREREDAYEVLRRAPGVKAVFLREDLPYLNAPVSGDLIVSAKEGFWFCHHRECKGIKGKSYWVRGMHGSLNERVVKVPLVLWNLEAKKEEATLYDIAPTILKFFGVEKRVEMIGKSLI	not soluble
MGSDKIHHHHHHMKKVLVAGATGYLGRYAVQEFKNRGYWVRALVRNPEKFKKPGPFFAPEIDTLVDDVVFGDATKPETIAGLCDGIDVVFSSLGMIKPDFEHDNFDVDYQGNMNILAEALKAGVKKFVYVSVFDAHRMMNIPNVQAHEKFVRELQAAKIESTIIRPNGFFSEIGQFVARARRGFMLWIGDGYNRQNPIHGADLAKVCADAVDSSEKEIEVGGPEVFTYREMVDLAIEIAGTQPVQVSLPFWLADGIVGVLGLFNRDVHDVALFATTLSKMDFVSPKYGTHRLRDFFNECKLLPL	not soluble
MGSDKIHHHHHHMKKYVIVTGGVLSGIGKGIFSASLARLMKEHGVDVNVLKIDPYLNVDAGTMNPNQHGEVFVTEDGYEADLDLGHYERFLGRDMTRQNNMTAGQVYLRVIEKERQGKYLGNTVQIVPHLTEEIKDRIRALEAELLVVEIGGTVGDIEGEVFLEAVRELQMEEGKENFLFAHVTYVPYLRTTNEFKTKPTQQSVQLLRRIGITPDMVIVRSEFPLDVPSMNKVALFSGVPRDFVINLPDTKNVYEVPEILRDMGLHEKIASKLNVELKKSTFNWSYPKAFKPYRIALVGKYLGTDDAYKSIIESVFLTGIEKPTVVDSQMLEDMNDEEVKKVLDEYDALIIPGGFGRRGVEGKIKAIKYARENKKPILGICLGMQLMVIEFARNVFGYKEANSTEFDPNTPYPVVDLMEEQKRILKLGGTMRLGAQKVKIFPKTKLYEVYGGVEEVYERHRHRYEANEEAFPELFKKPGEEGYKLVVSAKSDFIEAVELEDHPFFVGVQFHPEYKSKVGAPHPIFVYLRKVLEGSQ	not soluble
MGSDKIHHHHHHMKLETIDYRSPDAAAQFVQSLRDTGFGVLSNHPIQQSLVEAIYKDWYEFFQSGAKEEFRFNPETQDGFFPADVSETAKGHSVKDIKEYYHVYPWGRIPESLRANILAYYDHANQLAAELLSWVEAHSPDEVKALFTEPLPNMIDGSHKTLLRVLHYPPMKGDEEPGAIRAAAHEDINLLTVLPAANEPGLQVKAKDGTWLDVPSDFGNIIINIGDMLQEASGGYFPSTSHRVINPEGMDKTKSRISLPLFLHPRPDVVLSERYTADSYLMERLRELGVI	not soluble
